Source: IntAct's records for PubMed 9341158

Columns and labels:
ap1m1_human AP1M1 = ap1m1_human AP1M1 (UniProt Q9BXS5)
ap2m1_rat Ap2m1 = ap2m1_rat Ap2m1 (UniProt P84092)
Chain of ap2m1_rat Ap2m1 (P84092 whole entry): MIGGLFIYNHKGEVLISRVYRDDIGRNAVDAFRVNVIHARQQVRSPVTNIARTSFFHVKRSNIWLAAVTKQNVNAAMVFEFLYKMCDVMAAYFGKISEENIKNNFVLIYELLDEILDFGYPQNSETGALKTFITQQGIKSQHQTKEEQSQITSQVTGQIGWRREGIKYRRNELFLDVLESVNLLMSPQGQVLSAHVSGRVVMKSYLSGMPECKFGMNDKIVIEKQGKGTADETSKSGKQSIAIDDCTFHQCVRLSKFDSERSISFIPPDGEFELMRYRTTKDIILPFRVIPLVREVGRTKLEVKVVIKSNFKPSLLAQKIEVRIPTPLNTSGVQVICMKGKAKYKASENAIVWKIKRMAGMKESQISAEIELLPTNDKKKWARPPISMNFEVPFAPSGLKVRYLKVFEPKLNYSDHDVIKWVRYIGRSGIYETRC

Chain of Trans-Golgi network integral membrane protein TGN38 (Rattus norvegicus (Rat)), P19814 Y350A (P19814 whole entry Y350A): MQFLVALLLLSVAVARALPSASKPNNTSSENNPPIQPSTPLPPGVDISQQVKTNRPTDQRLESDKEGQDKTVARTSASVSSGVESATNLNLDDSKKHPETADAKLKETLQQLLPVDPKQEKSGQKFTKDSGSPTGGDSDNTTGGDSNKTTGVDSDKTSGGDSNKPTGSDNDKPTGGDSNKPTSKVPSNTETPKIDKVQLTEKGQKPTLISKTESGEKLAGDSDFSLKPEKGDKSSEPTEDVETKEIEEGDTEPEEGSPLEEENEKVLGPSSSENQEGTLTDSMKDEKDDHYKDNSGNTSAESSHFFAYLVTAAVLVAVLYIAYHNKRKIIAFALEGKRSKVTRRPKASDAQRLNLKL
Chain of ap1m1_human AP1M1 (Q9BXS5 whole entry): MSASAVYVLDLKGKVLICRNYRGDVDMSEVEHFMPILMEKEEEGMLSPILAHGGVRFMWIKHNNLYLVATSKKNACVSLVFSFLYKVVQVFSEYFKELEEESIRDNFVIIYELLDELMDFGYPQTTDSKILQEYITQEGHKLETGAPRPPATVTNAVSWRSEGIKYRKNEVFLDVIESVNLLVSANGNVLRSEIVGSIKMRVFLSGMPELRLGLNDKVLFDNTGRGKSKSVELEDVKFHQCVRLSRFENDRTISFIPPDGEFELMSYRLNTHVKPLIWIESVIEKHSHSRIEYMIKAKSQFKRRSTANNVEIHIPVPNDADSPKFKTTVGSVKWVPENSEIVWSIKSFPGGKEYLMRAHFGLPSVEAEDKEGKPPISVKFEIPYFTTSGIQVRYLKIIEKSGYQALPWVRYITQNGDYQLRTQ

effect of a mutation on the interaction (ap1m1_human AP1M1): decreasing interaction
effect of a mutation on the interaction (ap2m1_rat Ap2m1): decreasing interaction
Substance: Trans-Golgi network integral membrane protein TGN38 (Rattus norvegicus (Rat)), P19814 Y350A
